Test results: US20170101476A1 (Novartis, published 2017)
Where two headings read alike, the source gives them in different places.

T1: Human CXCR2 (human, UniProt P25025 1-360)
T1 sequence: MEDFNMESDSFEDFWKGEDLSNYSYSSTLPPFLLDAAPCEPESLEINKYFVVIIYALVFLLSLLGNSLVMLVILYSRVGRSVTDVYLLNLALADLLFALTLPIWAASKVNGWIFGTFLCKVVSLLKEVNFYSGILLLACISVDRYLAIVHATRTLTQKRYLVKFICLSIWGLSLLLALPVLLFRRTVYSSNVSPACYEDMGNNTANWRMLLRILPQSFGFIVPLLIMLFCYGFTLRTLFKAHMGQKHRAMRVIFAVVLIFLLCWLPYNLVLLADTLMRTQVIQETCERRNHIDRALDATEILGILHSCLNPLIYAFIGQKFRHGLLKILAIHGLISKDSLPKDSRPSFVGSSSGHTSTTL

T2: Cynomolgus CXCR2 (cynomolgus, UniProt Q28519 3-353 (rhesus entry))
T2 chain: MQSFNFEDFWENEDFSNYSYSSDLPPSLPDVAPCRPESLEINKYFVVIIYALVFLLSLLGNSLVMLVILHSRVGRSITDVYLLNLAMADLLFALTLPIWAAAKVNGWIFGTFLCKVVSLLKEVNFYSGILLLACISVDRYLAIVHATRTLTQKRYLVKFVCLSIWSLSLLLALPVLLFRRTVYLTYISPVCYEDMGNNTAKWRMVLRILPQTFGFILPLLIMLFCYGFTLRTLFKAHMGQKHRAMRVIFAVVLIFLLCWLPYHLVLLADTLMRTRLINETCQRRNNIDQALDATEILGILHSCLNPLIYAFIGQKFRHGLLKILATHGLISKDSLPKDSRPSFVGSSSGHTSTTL

B1: CXCR20033 (bispecific antibody, not shown: small tags and cut ends)
chain: EVQLVESGGGLVQPGGSLRLSCVASGRIFSSNAMGWFRQAPGKEREFVAAITWRSGGSAYYADSAKGRFTISRDNAKNTVYLQMNSLKPEDTAVYYCAAGGSSWLSFPPDYWGQGTQVTVSSGGGGSGGGGSGGGGSGGGGSGGGGSGGGGSGGGGSEVQLVESGGELVQPGGSLRLSCAASGSILTINAMGWYRQAPGKQRELVVRRTRGGSTTYQDSVKGRFTISADIAKKTMYLQMNSLKPEDTAVYYCMLDDRGGVYWGQGTQVTVSS
B2: CXCR20020 (bispecific antibody, not shown: small tags and cut ends)
chain: EVQLVESGGGLVQAGESLRLSCAASGSTFDFKVMGWYRQPPGKQREGVAAIRLSGNMHYAESVKGRFTISKANAKNTVYLQMNSLRPEDTAVYYCKVNIRGQDYWGQGTQVTVSSGGGGSGGGGSGGGGSGGGGSGGGGSGGGGSGGGGSEVQLVESGGGLVQAGGSLRLSCAASGRTFSDYAMGWFRQAPGKEREFVAAITWNGGRVFYTASVKGRFTISRDNAKNTMYLQMNSLKPEDTAVYYCAADKDRRTDYLGHPVAYWGQGTQVTVSS
B3: CXCR20014 (bispecific antibody, not shown: small tags and cut ends)
chain: EVQLVESGGGLVQPGGSLRLSCVASGSIVRINTMGWYRQTPGKQRELVADITSGGNINYIDAVKGRFTISRDNTKNTVYLQMNSLKPEDTAVYYCNAEIVVLVGVWTQRARTGNYWGQGTQVTVSSGGGGSGGGGSGGGGSGGGGSGGGGSGGGGSGGGGSEVQLVESGGELVQPGGSLRLSCAASGSILTINAMGWYRQAPGKQRELVVRRTRGGSTTYQDSVKGRFTISADIAKKTMYLQMNSLKPEDTAVYYCMLDDRGGVYWGQGTQVTVSS
B4: CXCR20026 (bispecific antibody, not shown: small tags and cut ends)
chain: EVQLVESGGGLVQPGGSLRLSCVASGRIFSSNAMGWFRQAPGKEREFVAAITWRSGGSAYYADSAKGRFTISRDNAKNTVYLQMNSLKPEDTAVYYCAAGGSSWLSFPPDYWGQGTQVTVSSGGGGSGGGGSGGGGSGGGGSGGGGSGGGGSGGGGSEVQLVESGGGLVQAGESLRLSCAASGSTFDFKVMGWYRQPPGKQREGVAAIRLSGNMHYAESVKGRFTISKANAKNTVYLQMNSLRPEDTAVYYCKVNIRGQDYWGQGTQVTVSS
B5: 127D01 (VHH, not shown: small tags and cut ends)
VHH: EVQLVESGGGLVQAGESLRLSCAASGSTFDFKVMGWYRQPPGKQREGVAAIRLSGNMHYAESVKGRFTISKANAKNTVYLQMNSLRPEDTAVYYCKVNIRGQDYWGQGTQVTVSS
B6: 137B07 (VHH, not shown: small tags and cut ends)
VHH: EVQLVESGGGLVQPGGSVRLSCVASGIIFRLSALGWTRQGPGKAREWVAGINSDGTTNYADPVKGRFTISRDNAKNTIYLHMDMLKPEDTAVYYCASGKYRGQGTQVTVSS
B7: CXCR20035 (other, not shown: small tags and cut ends)
chain: EVQLVESGGGLVQAGGSLTLSCAVSGSTFRINTMGWYRRAPGKQRELVAARDRGGYINYVDSVKGRFTVSRDNAKPTMYLQMNSLKPEDTAVYYCHAGTQDRTGRNFDRWGQGTQVTVSSGGGGSGGGGSGGGGSGGGGSGGGGSGGGGSGGGGSEVQLVESGGGLVQPGGSLRLSCVASGRIFSSNAMGWFRQAPGKEREFVAAITWRSGGSAYYADSAKGRFTISRDNAKNTVYLQMNSLKPEDTAVYYCAAGGSSWLSFPPDYWGQGTQVTVSS
B8: CXCR20023 (bispecific antibody, not shown: small tags and cut ends)
chain: EVQLVESGGGLVQAGGSLRLSCAASGRTFSDYAMGWFRQAPGKEREFVAAITWNGGRVFYTASVKGRFTISRDNAKNTMYLQMNSLKPEDTAVYYCAADKDRRTDYLGHPVAYWGQGTQVTVSSGGGGSGGGGSGGGGSGGGGSGGGGSGGGGSGGGGSEVQLVESGGGLVQPGGSLRLSCVASGRIFSSNAMGWFRQAPGKEREFVAAITWRSGGSAYYADSAKGRFTISRDNAKNTVYLQMNSLKPEDTAVYYCAAGGSSWLSFPPDYWGQGTQVTVSS
B9: CXCR20034 (bispecific antibody, not shown: small tags and cut ends)
chain: EVQLVESGGGLVQAGGSLRLSCAASGRTFSDYAMGWFRQAPGKEREFVAAITWNGGRVFYTASVKGRFTISRDNAKNTMYLQMNSLKPEDTAVYYCAADKDRRTDYLGHPVAYWGQGTQVTVSSGGGGSGGGGSGGGGSGGGGSGGGGSGGGGSGGGGSEVQLVESGGELVQPGGSLRLSCAASGSILTINAMGWYRQAPGKQRELVVRRTRGGSTTYQDSVKGRFTISADIAKKTMYLQMNSLKPEDTAVYYCMLDDRGGVYWGQGTQVTVSS
B10: CXCR20028 (other, not shown: small tags and cut ends)
chain: EVQLVESGGGLVQPGGSLRLSCVASGSIVRINTMGWYRQTPGKQRELVADITSGGNINYIDAVKGRFTISRDNTKNTVYLQMNSLKPEDTAVYYCNAEIVVLVGVWTQRARTGNYWGQGTQVTVSSGGGGSGGGGSGGGGSGGGGSGGGGSGGGGSGGGGSEVQLVESGGGLVQAGGSLTLSCAVSGSTFRINTMGWYRRAPGKQRELVAARDRGGYINYVDSVKGRFTVSRDNAKPTMYLQMNSLKPEDTAVYYCHAGTQDRTGRNFDRWGQGTQVTVSS
B11: CXCR20030 (other, not shown: small tags and cut ends)
chain: EVQLVESGGGLVQAGGSLRLSCAASGRTFSDYAMGWFRQAPGKEREFVAAITWNGGRVFYTASVKGRFTISRDNAKNTMYLQMNSLKPEDTAVYYCAADKDRRTDYLGHPVAYWGQGTQVTVSSGGGGSGGGGSGGGGSGGGGSGGGGSGGGGSGGGGSEVQLVESGGGLVQAGGSLTLSCAVSGSTFRINTMGWYRRAPGKQRELVAARDRGGYINYVDSVKGRFTVSRDNAKPTMYLQMNSLKPEDTAVYYCHAGTQDRTGRNFDRWGQGTQVTVSS

Columns and labels:
Test in all cases: cell-based or functional assay
Human CXCR2 [1] = target: T1, Human CXCR2
Human CXCR2 [2] = target: T1, Human CXCR2; remark: listed apart in the source
Cynomolgus CXCR2 [3] = target: T2, Cynomolgus CXCR2
Human CXCR2 [4] = target: T1, Human CXCR2; remark: listed apart in the source
Cynomolgus CXCR2 [5] = target: T2, Cynomolgus CXCR2
Human CXCR2 [6] = target: T1, Human CXCR2; remark: listed apart in the source
Cynomolgus CXCR2 [7] = target: T2, Cynomolgus CXCR2
Human CXCR2 [8] = target: T1, Human CXCR2; remark: listed apart in the source

| Binder | [35S]GTPγS % inhibition of max, GRO-α (Human CXCR2 [1]) [%] | [35S]GTPγS accumulation IC50, GRO-α (Human CXCR2 [1]) [nM] | Human Chemotaxis IC50 (vs rhGROα) (Human CXCR2 [2]) [nM] | Human WBSC IC50 (vs rhGROα) (Human CXCR2 [2]) [nM] | Cynomologus WBSC IC50 (vs rhGROα) (Cynomolgus CXCR2 [3]) [nM] | FLIPR IC50, GRO-α induced intracellular calcium release (Human CXCR2 [4]) [nM] | FLIPR IC50, GRO-α induced intracellular calcium release (Cynomolgus CXCR2 [5]) [nM] | [35S]GTPγS % inhibition of max, ENA-78 (Human CXCR2 [1]) [%] | [35S]GTPγS % inhibition of max, IL-8 (Human CXCR2 [1]) [%] | [35S]GTPγS accumulation IC50, ENA-78 (Human CXCR2 [1]) [nM] | [35S]GTPγS accumulation IC50, IL-8 (Human CXCR2 [1]) [nM] | FLIPR IC50, GRO-α induced intracellular calcium release (Human CXCR2 [6]) [nM] | [35S]GTPγS % inhibition max, GRO-α (Human CXCR2 [6]) [%] | [35S]GTPγS accumulation IC50, GRO-α (Human CXCR2 [6]) [nM] | FLIPR IC50, GRO-α induced intracellular calcium release (Cynomolgus CXCR2 [7]) [nM] | Human Chemotaxis IC50 (GROα) (Human CXCR2 [8]) [nM] | HumanWBSC IC50 (rhGROα) (Human CXCR2 [8]) [nM] |
| --- | --- | --- | --- | --- | --- | --- | --- | --- | --- | --- | --- | --- | --- | --- | --- | --- | --- |
| B1 | 100 | 1.01 | 0.145 | 0.345 | 0.42 | 17.9 | 4.46 |  |  |  |  |  |  |  |  |  |  |
| B2 | 100 | 0.634 | 0.145 | 0.17 | 0.12 | 6.98 | 1.64 | 100 | 100 | 0.707 | 0.619 |  |  |  |  |  |  |
| B3 | 100 | 1.38 | 0.16 | 0.445 | 0.16 | 6.84 | 13.7 | 100 | 100 | 1.66 | 1.13 |  |  |  |  |  |  |
| B4 | 100 | 0.809 | 0.14 | 0.165 | 0.26 | 12.3 | 9.1 |  |  |  |  |  |  |  |  |  |  |
| B5 |  |  |  |  |  |  |  |  |  |  |  | 21.9 | 66 | 12.5 | 753 | 3.9 | 4.9 |
| B6 |  |  |  |  |  |  |  |  |  |  |  | 6.71 |  |  |  |  |  |
| B7 | 100 | 0.844 |  | 0.24 | 0.43 | 10.2 | 8.72 | 100 | 100 | 1.17 | 0.717 |  |  |  |  |  |  |
| B8 | 100 | 26.6 |  |  |  | 14.8 | 12 |  |  |  |  |  |  |  |  |  |  |
| B9 | 100 | 0.995 | 0.145 | 0.29 | 0.44 | 11.8 | 9.47 |  |  |  |  |  |  |  |  |  |  |
| B10 | 100 | 1.38 |  | 0.43 | 1.72 | 21.9 | 17 |  |  |  |  |  |  |  |  |  |  |
| B11 | 100 | 1.02 |  | 0.215 | 0.56 | 11.8 | 6.36 | 100 | 100 | 1.3 | 1.09 |  |  |  |  |  |  |
